The data set in a line: self-splicing fitness, log relative to wild type (ln ratio); higher = more splicing; Tetrahymena group I intron in knt gene, E. coli kanamycin selection, DiMSum; sequences stand for … in CUCUCU…GGAGGGAAAAGUUAUCAGGCAUGCACCUGGUAGCUAGUCUUUAAACCAAUAGAUUGCAUCGGUUUAAAAGGCAAGACCGUCAAAUUGCGGGAAAGGGGUCAACAGCCGUUCAGUACCAAGUCUCAGGGGAAACUUUGAGAUGGCCUUGCAAAGGGUAUGGUAAUAAGCUGACGGACAUGGUCCUAACCACGCAGCCAAGUCCUAAGUCAACAGAUCUUCUGUUGAUAUGGAUGCAGUUCACAGACUAAAUGUCGGUCGGGGAAGAUGUAUUCUUCUCAUAAGAUAUAGUCGGACCUCUCCUUAAUGGGAGCUAGCGGAUGAAGUGAUGCAACACUGGAGCCGCUGGGAACUAAUUUGUAUGCGAAAGUAUAUUGAUUAGUUUUGGAGUACUCGUGGUCG
An outline of the steps:
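Six replicate transformations of E. coli BL21(DE3) with a pET-22b(+) library were grown overnight at 37°C or 30°C. The library randomised all eight P1ex-region intron nucleotides, the intron lying in the knt kanamycin-resistance gene, and plates were LB agar with or without 25 μg/mL kanamycin plus 100 μg/mL carbenicillin, 50 μM IPTG and 0.2% rhamnose. Pooled colonies were amplicon-sequenced on an Illumina HiSeq 2500, and fitness is the DiMSum error-weighted combination of wild-type-normalised replicate fold changes, kanamycin versus none.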

± gives the uncertainty stated by the source.

For UCGAAGCAAUAUUACGGCCU, the “self-splicing fitness (ln)” value (30 °C) is -2.16 ± 0.22 and the “self-splicing fitness (ln)” value (37 °C) is -1.77 ± 0.21.
Consider UCGAAGCAAUAUUACGGCUA, for which the “self-splicing fitness (ln)” value was -2.29 ± 0.15 (30 °C) and -1.41 ± 0.099 (37 °C).
The like results for UCGAAGCAAUAUUACGGCUG were, in that order, -1.98 ± 0.14 and -0.494 ± 0.14.
On to UCGAAGCAAUAUUACGGGUU, for which the “self-splicing fitness (ln)” value is -4.87 ± 0.29 (30 °C) and -1.47 ± 0.14 (37 °C).
As to UCGAAGCAAUAUUACGGUAU, the “self-splicing fitness (ln)” value reads like this: (30 °C) -3.58 ± 0.16; (37 °C) -1.73 ± 0.14.
For the sequence UCGAAGCAAUAUUACGGUUU, the “self-splicing fitness (ln)” value is, setting by setting: (30 °C) -3.83 ± 0.21; (37 °C) -2.72 ± 0.29.
On to UCGAAGCAAUAUUACGUAAU, for which the “self-splicing fitness (ln)” value by setting is: (30 °C) -3.88 ± 0.15; (37 °C) -1.62 ± 0.12.
The like results for UCGAAGCAAUAUUACGUACG were, in that order, -1.01 ± 0.082 and 0.00936 ± 0.11.
The corresponding values for UCGAAGCAAUAUUACGUCAA are -1.52 ± 0.11 and -1.15 ± 0.1.
With UCGAAGCAAUAUUACGUCCA, the “self-splicing fitness (ln)” value runs as follows: (30 °C) -1.08 ± 0.13; (37 °C) -0.411 ± 0.14.
UCGAAGCAAUAUUACGUCGG: the “self-splicing fitness (ln)” value is, setting by setting: (30 °C) -2.65 ± 0.17; (37 °C) -3.7 ± 0.31.
Regarding UCGAAGCAAUAUUACGUGCG, the “self-splicing fitness (ln)” value runs as follows: (30 °C) -1.07 ± 0.086; (37 °C) -0.299 ± 0.1.
In the case of UCGAAGCAAUAUUACGUGUC, the “self-splicing fitness (ln)” value (37 °C) is -2.37 ± 0.37.
Take UCGAAGCAAUAUUACGUUCU: the “self-splicing fitness (ln)” value is, setting by setting: (30 °C) -1.72 ± 0.091; (37 °C) -1.53 ± 0.13.
With UCGCAGCAAUAUUACGACGC, the “self-splicing fitness (ln)” value (30 °C) was -1.81 ± 0.48.
UCGCAGCAAUAUUACGAUUA: the “self-splicing fitness (ln)” value reads like this: (30 °C) -1.06 ± 0.11; (37 °C) -0.805 ± 0.11.
The like results for UCGCAGCAAUAUUACGCAAU were, in that order, -2.15 ± 0.19 and -2.92 ± 0.35.
Consider UCGCAGCAAUAUUACGCAUC, for which the “self-splicing fitness (ln)” value was -2.52 ± 0.21 (30 °C) and -1.57 ± 0.17 (37 °C).
The like results for UCGCAGCAAUAUUACGCCGU were, in that order, -3.48 ± 0.26 and -2.99 ± 0.4.
As to UCGCAGCAAUAUUACGCGAU, the “self-splicing fitness (ln)” value by setting is: (30 °C) -2.55 ± 0.18; (37 °C) -2.97 ± 0.25.
For UCGCAGCAAUAUUACGCGGA, where the note is “37 °C”, the “self-splicing fitness (ln)” value was -2.29 ± 0.25.
Take UCGCAGCAAUAUUACGCUAA: the “self-splicing fitness (ln)” value reads like this: (30 °C) -1.96 ± 0.14; (37 °C) -1.72 ± 0.15.
UCGCAGCAAUAUUACGCUCG: the “self-splicing fitness (ln)” value is, setting by setting: (30 °C) -3.23 ± 0.28; (37 °C) -1.61 ± 0.2.
As for UCGCAGCAAUAUUACGGACA, the “self-splicing fitness (ln)” value (30 °C) was -1.38 ± 0.17 and the “self-splicing fitness (ln)” value (37 °C) was -1.83 ± 0.14.
The corresponding values for UCGCAGCAAUAUUACGGCAA are -0.188 ± 0.079 and 0.0609 ± 0.11.
With UCGCAGCAAUAUUACGGCCC, the “self-splicing fitness (ln)” value (37 °C) was -2.41 ± 0.41.
Take UCGCAGCAAUAUUACGGGCU: the “self-splicing fitness (ln)” value is, setting by setting: (30 °C) -3.71 ± 0.17; (37 °C) -2.63 ± 0.16.
With UCGCAGCAAUAUUACGGUCG, the “self-splicing fitness (ln)” value was -0.126 ± 0.094 (30 °C) and 0.0192 ± 0.14 (37 °C).
The like results for UCGCAGCAAUAUUACGUCAU were, in that order, -3.77 ± 0.14 and -2.65 ± 0.13.
The like results for UCGCAGCAAUAUUACGUCGA were, in that order, -1.81 ± 0.13 and -2.03 ± 0.18.
Take UCGCAGCAAUAUUACGUCGU: the “self-splicing fitness (ln)” value is -1.95 ± 0.081 (30 °C) and -0.965 ± 0.096 (37 °C).
As for UCGCAGCAAUAUUACGUGAU, the “self-splicing fitness (ln)” value runs as follows: (30 °C) -2.2 ± 0.25; (37 °C) -3.26 ± 0.35.
The corresponding values for UCGCAGCAAUAUUACGUGGC are -3.81 ± 0.42 and -2.45 ± 0.31.
Take UCGCAGCAAUAUUACGUGGU: the “self-splicing fitness (ln)” value is -3.38 ± 0.13 (30 °C) and -3.24 ± 0.19 (37 °C).
UCGCAGCAAUAUUACGUGUU: the “self-splicing fitness (ln)” value (30 °C) was -2.49 ± 0.092 and the “self-splicing fitness (ln)” value (37 °C) was -1.67 ± 0.11.
On to UCGCAGCAAUAUUACGUUAU, for which the “self-splicing fitness (ln)” value (30 °C) was -3.3 ± 0.26 and the “self-splicing fitness (ln)” value (37 °C) is -2.51 ± 0.24.
The like results for UCGCAGCAAUAUUACGUUUG were, in that order, -2.89 ± 0.099 and -1.09 ± 0.11.
Consider UCGGAGCAAUAUUACGAAAC, for which, where the note is “30 °C”, the “self-splicing fitness (ln)” value was -2.87 ± 0.28.
As for UCGGAGCAAUAUUACGAAUG, the “self-splicing fitness (ln)” value reads like this: (30 °C) -4.16 ± 0.36; (37 °C) -2.15 ± 0.27.
The corresponding values for UCGGAGCAAUAUUACGAGCG are -2.48 ± 0.23 and -0.586 ± 0.23.

(Values after the supplement of paper PMC7877785.)
